Experimental data taken from article PMC10761769, “Allosteric control of dynamin-related protein 1 through a disordered C-terminal Short Linear Motif” (Nature Communications, 2024).
Where “and” joins values, the source holds several entries; their conditions need not be identical. Equal entries are not always repeated. One block for each molecule: values may come before it.

Key:
R403A Drp1 = R403A Drp1 (UniProt O00429); assay: not stated; R403A Drp1 in solution (Supplementary Fig. 4a); the same protein was used as a dimer for SEC-SAXS at ~34 uM in buffer A with 1 mM DTT
[1] = biological target: the molecule itself; assay: SEC-MALS; Drp1 in the nucleotide-free apo state, Superose 6 10/300 GL; injected at 5 uM, ~0.5 uM at peak detection; other injection concentrations in the supplement
[2] = biological target: human dynamin-related protein 1 (Drp1) isoform 3, wild type, N-terminal His6 tag (human) (UniProt O00429)
[3] = biological target: the molecule itself; assay: SEC-MALS; full-length GIPC-1, unliganded, 10 uM at injection, Superdex 200 10/300 GL
[4] = biological target: the molecule itself; assay: negative-stain EM; 2D class averages of single particles, Drp1 at 2 uM, apo state

stoichiometry N (R403A Drp1): 2
Molecule: R403A Drp1 (from UniProt O00429-4 1-699) (enzyme)

B1: human dynamin-related protein 1 (Drp1) isoform 3, wild type, N-terminal His6 tag (enzyme, UniProt O00429-4 1-699, looked up)
chain: MEALIPVINKLQDVFNTVGADIIQLPQIVVVGTQSSGKSSVLESLVGRDLLPRGTGIVTRRPLILQLVHVSQEDKRKTTGEENGVEAEEWGKFLHTKNKLYTDFDEIRQEIENETERISGNNKGVSPEPIHLKIFSPNVVNLTLVDLPGMTKVPVGDQPKDIELQIRELILRFISNPNSIILAVTAANTDMATSEALKISREVDPDGRRTLAVITKLDLMDAGTDAMDVLMGRVIPVKLGIIGVVNRSQLDINNKKSVTDSIRDEYAFLQKKYPSLANRNGTKYLARTLNRLLMHHIRDCLPELKTRINVLAAQYQSLLNSYGEPVDDKSATLLQLITKFATEYCNTIEGTAKYIETSELCGGARICYIFHETFGRTLESVDPLGGLNTIDILTAIRNATGPRPALFVPEVSFELLVKRQIKRLEEPSLRCVELVHEEMQRIIQHCSNYSTQELLRFPKLHDAIVEVVTCLLRKRLPVTNEMVHNLVAIELAYINTKHPDFADACGLMNNNIEEQRRNRLARELPSAVSRDKVASGGGGVGDGVQEPTTGNWRGMLKTSKAEELLAEEKSKPIPIMPASPQKGHAVNLLDVPVPVARKLSAREQRDCEVIERLIKSYFLIVRKNIQDSVPKAVMHFLVNHVKDTLQSELVGQLYKSSLLDDLLTESEDMAQRRKEAADMLKALQGASQIIAEIRETHLW
notes: dynamin-related protein 1 (Drp1), human, isoform 3, 699 residues, ends in the CT-SLiM R694-W699 (RETHLW); numbers count on: isoform 3 (699 residues); also called WT Drp1; WT
stoichiometry N [1]: 2 and 4

fission of free-standing lipid nanotubes by WT Drp1 with GIPC-1 at 1:1 (0.5 uM each), 1 mM GTP [2]: > 30%
B2: mouse GIPC-1 (GAIP interacting protein, C-terminus 1), full length (natural protein, UniProt Q9Z0G0 1-333, looked up)
chain: MPLGLGRRKKAPPLVENEEAEPSRSGLGVGEPGPLGGSAAGESQMGLPPPPAALRPRLVFHTQLAHGSPTGRIEGFTNVKELYGKIAEAFRLPAAEVMFCTLNTHKVDMDKLLGGQIGLEDFIFAHVKGQRKEVEVFKSEEALGLTITDNGAGYAFIKRIKEGSVIDHIQLISVGDMIEAINGQSLLGCRHYEVARLLKELPRGRTFTLKLTEPRKAFDMISQRSAGGHPGSGPQLGTGRGTLRLRSRGPATVEDLPSAFEEKAIEKVDDLLESYMGIRDTELAATMVELGKDKRNPDELAEALDERLGDFAFPDEFVFDVWGAIGDAKVGRY
notes: GIPC-1, mouse, full length; also called full-length GIPC-1; source: subcloned in pGEX-6P1, expressed and purified using standard protocols; GST removed by HRV3C; not shown: GST, N-terminal, cleaved
stoichiometry N [3]: 2

B3: human Drp1 isoform 3 ΔCT4 (last four residues of the CT-SLiM removed) (enzyme, UniProt O00429-4 1-695, looked up)
chain: MEALIPVINKLQDVFNTVGADIIQLPQIVVVGTQSSGKSSVLESLVGRDLLPRGTGIVTRRPLILQLVHVSQEDKRKTTGEENGVEAEEWGKFLHTKNKLYTDFDEIRQEIENETERISGNNKGVSPEPIHLKIFSPNVVNLTLVDLPGMTKVPVGDQPKDIELQIRELILRFISNPNSIILAVTAANTDMATSEALKISREVDPDGRRTLAVITKLDLMDAGTDAMDVLMGRVIPVKLGIIGVVNRSQLDINNKKSVTDSIRDEYAFLQKKYPSLANRNGTKYLARTLNRLLMHHIRDCLPELKTRINVLAAQYQSLLNSYGEPVDDKSATLLQLITKFATEYCNTIEGTAKYIETSELCGGARICYIFHETFGRTLESVDPLGGLNTIDILTAIRNATGPRPALFVPEVSFELLVKRQIKRLEEPSLRCVELVHEEMQRIIQHCSNYSTQELLRFPKLHDAIVEVVTCLLRKRLPVTNEMVHNLVAIELAYINTKHPDFADACGLMNNNIEEQRRNRLARELPSAVSRDKVASGGGGVGDGVQEPTTGNWRGMLKTSKAEELLAEEKSKPIPIMPASPQKGHAVNLLDVPVPVARKLSAREQRDCEVIERLIKSYFLIVRKNIQDSVPKAVMHFLVNHVKDTLQSELVGQLYKSSLLDDLLTESEDMAQRRKEAADMLKALQGASQIIAEIRE
notes: Drp1, human, isoform 3, without the last four residues (T696-W699) of the 699; numbers count on: isoform 3 (699 residues); Limits worked out from 'the last four residues removed' and W699 as the last residue; also called ΔCT4 Drp1; ΔCT4 variant
stoichiometry N [1]: 4
stoichiometry N [4]: 2

B4: human Drp1 isoform 3 ΔCT6 (last six residues, the whole CT-SLiM, removed) (enzyme, UniProt O00429-4 1-693, looked up)
chain: MEALIPVINKLQDVFNTVGADIIQLPQIVVVGTQSSGKSSVLESLVGRDLLPRGTGIVTRRPLILQLVHVSQEDKRKTTGEENGVEAEEWGKFLHTKNKLYTDFDEIRQEIENETERISGNNKGVSPEPIHLKIFSPNVVNLTLVDLPGMTKVPVGDQPKDIELQIRELILRFISNPNSIILAVTAANTDMATSEALKISREVDPDGRRTLAVITKLDLMDAGTDAMDVLMGRVIPVKLGIIGVVNRSQLDINNKKSVTDSIRDEYAFLQKKYPSLANRNGTKYLARTLNRLLMHHIRDCLPELKTRINVLAAQYQSLLNSYGEPVDDKSATLLQLITKFATEYCNTIEGTAKYIETSELCGGARICYIFHETFGRTLESVDPLGGLNTIDILTAIRNATGPRPALFVPEVSFELLVKRQIKRLEEPSLRCVELVHEEMQRIIQHCSNYSTQELLRFPKLHDAIVEVVTCLLRKRLPVTNEMVHNLVAIELAYINTKHPDFADACGLMNNNIEEQRRNRLARELPSAVSRDKVASGGGGVGDGVQEPTTGNWRGMLKTSKAEELLAEEKSKPIPIMPASPQKGHAVNLLDVPVPVARKLSAREQRDCEVIERLIKSYFLIVRKNIQDSVPKAVMHFLVNHVKDTLQSELVGQLYKSSLLDDLLTESEDMAQRRKEAADMLKALQGASQIIAEI
notes: Drp1, human, isoform 3, without the last six residues (R694-W699) of the 699; numbers count on: isoform 3 (699 residues); Limits worked out from 'the last six residues removed' and W699 as the last residue; also called ΔCT6 Drp1; ΔCT6 variant
stoichiometry N [1]: 4
stoichiometry N [4]: 2
